# Earlier results, collected in patent US20140322315A1, “CYSTEAMINE AND/OR CYSTAMINE FOR TREATING ISCHEMIC INJURY” (The Regents of the University of California, priority 2011, published 2014).
# Tested on: acute ischemic stroke
molecule,measurement,setting,value
"tPA: tissue plasminogen activator, FDA approved 1996 as therapy for acute ischemic stroke (protein, UniProt P00750 36-562, looked up) Tissue-type plasminogen …: SYQVICRDEKTQMIYQQHQSWLRPVLRSNRVEYCWCNSGRAQCHSVPVKSCSEPRCFNGGTCQQALYFSDFVCQCPEGFAGKCCEIDTRATCYEDQGISYRGTWSTAESGAECTNWNSSALAQKPYSGRRPDAIRLGLGNHNYCRNPDRDSKPWCYVFKAGKYSSEFCSTPACSEGNSDCYFGNGSAYRGTHSLTESGASCLPWNSMILIGKVYTAQNPSAQALGLGKHNYCRNPDGDAKPWCHVLKNRRLTWEYCDVPSCSTCGLRQYSQPQFRIKGGLFADIASHPWQAAIFAKHRRSPGERFLCGGILISSCWILSAAHCFQERFPPHHLTVILGRTYRVVPGEEEQKFEVEKYIVHKEFDDDTYDNDIALLQLKSDSSRCAQESSVVRTVCLPPADLQLPDWTECELSGYGKHEALSPFYSERLKEAHVRLYPSSRCTSQHLLNRTVTDNMLCAGDTRSGGPQANLHDACQGDSGGPLVCLNDGRMTLVGIISWGLGCGQKDVPGVYTKVTNYLDWIRDNMRP",improvement in clinical outcome,"some, but not all, of the controlled trials in acute ischemic stroke",30-55%
same,"complete resolution of symptoms, share of the time",thrombolytic therapy with tPA,less than 40%
